Experiments:
[1] = target: extracellular domain of human interferon-γ receptor 1 (IFN-γ-Rx), mutant S95R (human) (UniProt P15260); assay: SPR; His-tagged receptor immobilised on Ni2+-coated HTG chip; IFN-γ-SC as analyte; PBST; 15 °C; preliminary data of temperature dependency
[2] = target: extracellular domain of human interferon-γ receptor 1 (IFN-γ-Rx), mutant N70G (human) (UniProt P15260); assay: SPR; His-tagged receptor immobilised on Ni2+-activated HTG chip (ProteOn XPR36); IFN-γ-SC as analyte, 1.2 to 99 nM; PBST (PBS pH 7.4, 0.005% Tween20); 25 °C; 1:1 Langmuir with drift; averages over four different batches of IFN-γ-SC
[3] = target: extracellular domain of human interferon-γ receptor 1 (IFN-γ-Rx), wild type (human) (UniProt P15260); assay: as above
[4] = target: extracellular domain of human interferon-γ receptor 1 (IFN-γ-Rx), mutant N96W (human) (UniProt P15260); assay: as above
[5] = target: extracellular domain of human interferon-γ receptor 1 (IFN-γ-Rx), mutant H222R (human) (UniProt P15260); assay: SPR; His-tagged receptor immobilised on Ni2+-coated HTG chip; IFN-γ-SC as analyte; PBST; 30 °C; preliminary data of temperature dependency
[6] = target: extracellular domain of human interferon-γ receptor 1 (IFN-γ-Rx), mutant N70G (human) (UniProt P15260); assay: as above
[7] = target: extracellular domain of human interferon-γ receptor 1 (IFN-γ-Rx), wild type (human) (UniProt P15260); assay: as above
[8] = target: extracellular domain of human interferon-γ receptor 1 (IFN-γ-Rx), mutant S95R (human) (UniProt P15260); assay: as above
[9] = target: extracellular domain of human interferon-γ receptor 1 (IFN-γ-Rx), mutant N96W (human) (UniProt P15260); assay: as above

Kd [1]: 38.6 nM | Kd [2]: 19 nM | Kd [3]: 21 nM | Kd [4]: 5.3 nM | Kd [5]: 56 nM | Kd [6]: 49.2 nM | Kd [7]: 59.9 nM | Kd [8]: 107 nM | Kd [9]: 12.2 nM
Substance: single-chain form of human interferon-γ (IFN-γ-SC) (ligand)

— PMC3807708
